Here are results for three molecules from US20240218393, “VECTORS ENCODING GENE EDITING SYSTEMS AND USES THEREOF” (Mammoth Biosciences, Inc., published 2024).

B1: sgRNA SEQ 202 ; target of sgRNA SEQ 202 (protospacer) (ssRNA ; dsDNA)
RNA: UGGGGCAGUUGGUUGCCCUUAGCCUGAGGCAUUUAUUGCACUCGGGAAGUACCAUUUCUCAGAAAUGGUACAUCCAACUCUAGGCGCCCGCUAAGUUC
DNA 1: TCTAGGCGCCCGCTAAGTTC
DNA 2: GAACTTAGCGGGCGCCTAGA
B2: sgRNA SEQ 206 ; target of sgRNA SEQ 206 (protospacer) (ssRNA ; dsDNA)
RNA: UGGGGCAGUUGGUUGCCCUUAGCCUGAGGCAUUUAUUGCACUCGGGAAGUACCAUUUCUCAGAAAUGGUACAUCCAACGGGGGCGGGGGGGAGAAAAA
DNA 1: GGGGGCGGGGGGGAGAAAAA
DNA 2: TTTTTCTCCCCCCCGCCCCC
B3: sgRNA SEQ 204 ; target of sgRNA SEQ 204 (protospacer) (ssRNA ; dsDNA)
RNA: UGGGGCAGUUGGUUGCCCUUAGCCUGAGGCAUUUAUUGCACUCGGGAAGUACCAUUUCUCAGAAAUGGUACAUCCAACCGUGCUGUUUCCUCCCCACG
DNA 1: CGTGCTGTTTCCTCCCCACG
DNA 2: CGTGGGGAGGAAACAGCACG

The target of this series is T1, CasM.19952.
T1 chain: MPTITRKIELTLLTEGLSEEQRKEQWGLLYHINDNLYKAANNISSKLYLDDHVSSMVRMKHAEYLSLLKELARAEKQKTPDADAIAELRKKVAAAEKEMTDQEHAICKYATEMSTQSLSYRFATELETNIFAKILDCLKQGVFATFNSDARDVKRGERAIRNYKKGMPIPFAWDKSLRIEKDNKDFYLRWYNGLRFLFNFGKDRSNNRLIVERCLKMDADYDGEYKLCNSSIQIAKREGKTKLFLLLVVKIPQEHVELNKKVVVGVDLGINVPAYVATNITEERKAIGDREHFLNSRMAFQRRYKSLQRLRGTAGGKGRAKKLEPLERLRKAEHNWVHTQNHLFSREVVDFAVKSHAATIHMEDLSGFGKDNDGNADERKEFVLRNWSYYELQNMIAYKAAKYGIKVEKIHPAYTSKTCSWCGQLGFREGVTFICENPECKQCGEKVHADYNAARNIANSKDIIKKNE
Put plainly: cell_activity; HEK293T, plasmid lipofection; PAM TCG or KYG (Table 1.1). The settings on record: tags: expressed from plasmid or scAAV. Here is the method:
CasM.19952 was tested for its ability to produce indels in HEK293T cells. Briefly, a plasmid encoding CasM.19952 and a guide RNA was delivered by lipofection to HEK293T cells. This was performed for a variety of guide RNAs targeting up to twenty-four loci adjacent to biochemically determined PAM sequences. Indels were detected by next generation sequencing of PCR amplicons at the targeted loci and indel percentage was calculated as the fraction of sequencing reads containing insertions or deletions relative to an unedited reference sequence. Sequencing libraries with less than 20% of reads aligning to the reference sequence were excluded from the analysis for quality control purposes. “No plasmid” and SpyCas9 were included as negative and positive controls, respectively. […] TABLE 8 describes the sequences of the single guide RNAs tested that provided the greatest percent of reads with indels. Non-bold, non-italicized, capital letters indicate the tracrRNA region of the guide RNA; italicized letters indicate a linker; bold letters indicate the repeat sequence; and the lowercase letters represent the spacer sequence.
In the case of B1, the activity was 13.5 % indel reads.

In turn, B2 showed an activity of 18.4 % indel reads.

B3 registered an activity of 19.4 % indel reads.
